In patent US20160024210A1 (AstraZeneca / MedImmune, published 2016):

T1: H7CR-GFP fusion protein on transfected CHO cells (Homo sapiens (Human), UniProt Q96BF3 23-282)
T1 construct: not shown: GFP part
T1 sequence: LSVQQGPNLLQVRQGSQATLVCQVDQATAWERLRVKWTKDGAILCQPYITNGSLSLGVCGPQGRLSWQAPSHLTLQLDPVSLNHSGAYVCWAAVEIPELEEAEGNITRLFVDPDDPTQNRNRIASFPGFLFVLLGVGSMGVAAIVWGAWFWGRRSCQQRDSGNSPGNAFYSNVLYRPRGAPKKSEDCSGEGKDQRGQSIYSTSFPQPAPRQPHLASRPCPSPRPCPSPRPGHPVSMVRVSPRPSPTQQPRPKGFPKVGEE

T2: human H7CR (B7-H7 counter-receptor) (human, UniProt Q96BF3 23-282)
T2 construct: Used for H7CR on CHO.hH7CR transfectants, human T cells and tonsil tissue; also called B7-H7CR; CD28H
T2 sequence: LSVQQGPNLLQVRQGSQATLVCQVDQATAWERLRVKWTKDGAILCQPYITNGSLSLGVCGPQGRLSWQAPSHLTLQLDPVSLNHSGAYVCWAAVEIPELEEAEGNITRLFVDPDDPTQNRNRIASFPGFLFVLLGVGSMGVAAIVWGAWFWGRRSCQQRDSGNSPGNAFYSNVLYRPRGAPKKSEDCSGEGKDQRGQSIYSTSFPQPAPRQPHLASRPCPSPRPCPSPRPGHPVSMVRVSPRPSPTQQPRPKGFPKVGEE


Tests used:
[1] = molecular target: T1, H7CR-GFP fusion protein on transfected …; experiment: flow cytometry, 5 µg/ml variant on H7CR-GFP transfected CHO cells, anti-hIg PE secondary antibody [row HC2-3, column LC1-1]
Procedure: (§1) 5 μg/ml antibodies from thirty-six variants were incubated with H7CR-GFP fusion protein transfected CHO cells for 30 min at room temperature. Cells were then washed twice with 2 ml flow cytometry buffer, and resuspended in 100 μl flow cytometry buffer. 1 μl anti-hIg PE secondary antibody (Biolegend) was added and incubated with the cells for 15 mins Samples were then washed and resuspended in 100 μl flow cytometry buffer. Flow Cytometry data was acquired using BD Canto (BD Biosciences) in plate format and analyzed by FlowJo software.

[2] = molecular target: T2, human H7CR (B7-H7 counter-receptor); experiment: binding to human H7CR as endogenously expressed on the surface of a cell
[3] = molecular target: T1, H7CR-GFP fusion protein on transfected …; experiment: flow cytometry, 5 µg/ml variant on H7CR-GFP transfected CHO cells, anti-hIg PE secondary antibody [row HC2-3, column LC2-1]
Procedure: as §1

[4] = molecular target: T1, H7CR-GFP fusion protein on transfected …; experiment: flow cytometry, 5 µg/ml variant on H7CR-GFP transfected CHO cells, anti-hIg PE secondary antibody [row HC2-3, column LC1-2]
Procedure: as §1

[5] = molecular target: T1, H7CR-GFP fusion protein on transfected …; experiment: flow cytometry, 5 µg/ml variant on H7CR-GFP transfected CHO cells, anti-hIg PE secondary antibody [row HC2-3, column LC2-3]
Procedure: as §1

[6] = molecular target: T1, H7CR-GFP fusion protein on transfected …; experiment: flow cytometry, 5 µg/ml variant on H7CR-GFP transfected CHO cells, anti-hIg PE secondary antibody [row HC2-3, column LC2-2]
Procedure: as §1

[7] = molecular target: T1, H7CR-GFP fusion protein on transfected …; experiment: flow cytometry, 5 µg/ml variant on H7CR-GFP transfected CHO cells, anti-hIg PE secondary antibody [row HC2-3, column LC1-3]
Procedure: as §1

[8] = molecular target: T1, H7CR-GFP fusion protein on transfected …; experiment: flow cytometry, 5 µg/ml variant on H7CR-GFP transfected CHO cells, anti-hIg PE secondary antibody [row HC2-2, column LC2-3]
Procedure: as §1

Row | Binder | binding result [2] | other results
1 | 4.5 humanized variant 31 (HC2-3 / LC1-1) (antibody, V domains shown, Variable domains only; detected with anti-hIg secondary; also called VH2C / VL1A) VH: QIQLKESGPTLVKPTQTLTLTCTVSGFSITTGGYYWNWIRQPPGKKLEWMALIYTSGRTSYNPSLKSRLTITKDTSKNQVVLTMTNMDPVDTATYYCADMADKGGWFAYWGQGTLVTVSS VL: DIVMTQSPDSLAVSLGERATINCKSSQSLFSSNTKRNYLAWYQQKPGQPPKLLIYHASTRESGVPDRFSGSGSGTDFTLTISSLQAEDVAVYYCQQHYETPLTFGQGTRLEIK | binds | binding result [1]: binds
2 | 4.5 humanized variant 34 (HC2-3 / LC2-1) (antibody, V domains shown, Variable domains only; detected with anti-hIg secondary; also called VH2C / VL2A) VH: QIQLKESGPTLVKPTQTLTLTCTVSGFSITTGGYYWNWIRQPPGKKLEWMALIYTSGRTSYNPSLKSRLTITKDTSKNQVVLTMTNMDPVDTATYYCADMADKGGWFAYWGQGTLVTVSS VL: DIVMTQTPLSLPVTPGEPASISCRSSQSLFSSNTKRNYLDWYLQKPGQSPQLLIYHASYRASGVPDRFSGSGSGTDFTLKISRVEAEDVGVYYCQQHYETPLTFGQGTRLEIK | binds | binding result [3]: binds
3 | 4.5 humanized variant 32 (HC2-3 / LC1-2) (antibody, V domains shown, Variable domains only; detected with anti-hIg secondary; also called VH2C / VL1B) VH: QIQLKESGPTLVKPTQTLTLTCTVSGFSITTGGYYWNWIRQPPGKKLEWMALIYTSGRTSYNPSLKSRLTITKDTSKNQVVLTMTNMDPVDTATYYCADMADKGGWFAYWGQGTLVTVSS VL: DIVMTQSPDSLAVSLGERATINCKSSQSLFSSNTKRNYLNWYQQKPGQPPKLLIYHASTRLSGVPDRFSGSGSGTDFTLTISSLQAEDVADYFCQQHYETPLTFGDGTRLEIK | binds | binding result [4]: binds
4 | 4.5 humanized variant 36 (HC2-3 / LC2-3) (antibody, V domains shown, Variable domains only; detected with anti-hIg secondary; also called VH2C / VL2C) VH: QIQLKESGPTLVKPTQTLTLTCTVSGFSITTGGYYWNWIRQPPGKKLEWMALIYTSGRTSYNPSLKSRLTITKDTSKNQVVLTMTNMDPVDTATYYCADMADKGGWFAYWGQGTLVTVSS VL: DIVMTQTPSSLPVTPGEPASISCLSSQSLFSSNTKRNYLNWYLQKPGQSPKLLIYHASTRLSGVPDRFSGSGSGTDFTLKISRVEAEDVGDYFCQQHYETPLTFGDGTRLEIK | binds | binding result [5]: binds
5 | 4.5 humanized variant 35 (HC2-3 / LC2-2) (antibody, V domains shown, Variable domains only; detected with anti-hIg secondary; also called VH2C / VL2B) VH: QIQLKESGPTLVKPTQTLTLTCTVSGFSITTGGYYWNWIRQPPGKKLEWMALIYTSGRTSYNPSLKSRLTITKDTSKNQVVLTMTNMDPVDTATYYCADMADKGGWFAYWGQGTLVTVSS VL: DIVMTQTPLSLPVTPGEPASISCRSSQSLFSSNTKRNYLNWYLQKPGQSPKLLIYHASTRLSGVPDRFSGSGSGTDFTLKISRVEAEDVGDYFCQQHYETPLTFGDGTRLEIK | binds | binding result [6]: binds
6 | 4.5 humanized variant 33 (HC2-3 / LC1-3) (antibody, V domains shown, Variable domains only; detected with anti-hIg secondary; also called VH2C / VL1C) VH: QIQLKESGPTLVKPTQTLTLTCTVSGFSITTGGYYWNWIRQPPGKKLEWMALIYTSGRTSYNPSLKSRLTITKDTSKNQVVLTMTNMDPVDTATYYCADMADKGGWFAYWGQGTLVTVSS VL: DIVMTQSPDSLAVSLGERATINCLSSQSLFSSNTKRNYLNWYQQKPGQSPKLLIYHASTRLSGVPDRFSGSGSGTDFTLTISSLQAEDVADYFCQQHYETPLTFGDGTRLEIK | binds | binding result [7]: binds
7 | 4.5 humanized variant 30 (HC2-2 / LC2-3) (antibody, V domains shown, Variable domains only; detected with anti-hIg secondary; also called VH2B / VL2C) VH: QITLKESGPTLVKPTQTLTLTCTVSGFSITTGGYYWNWIRQPPGKKLEWLALIYTSGRTSYNPSLKSRLTITKDTSKNQVVLTMTNMDPVDTATYYCADMADKGGWFAYWGQGTLVTVSS VL: DIVMTQTPSSLPVTPGEPASISCLSSQSLFSSNTKRNYLNWYLQKPGQSPKLLIYHASTRLSGVPDRFSGSGSGTDFTLKISRVEAEDVGDYFCQQHYETPLTFGDGTRLEIK | binds | binding result [8]: binds
